Data from patent publication US20210206865A1 (Regeneron, published 2021).
Where a chain is given by its changes, count along the chain named.

T1: human BCMA on the surface of cell lines (NCI-H929, MM.1S, OPM-2, RPMI-8226, Daudi, Raji, MOLP-8, U266) (human, UniProt Q02223 1-184)
T1 sequence: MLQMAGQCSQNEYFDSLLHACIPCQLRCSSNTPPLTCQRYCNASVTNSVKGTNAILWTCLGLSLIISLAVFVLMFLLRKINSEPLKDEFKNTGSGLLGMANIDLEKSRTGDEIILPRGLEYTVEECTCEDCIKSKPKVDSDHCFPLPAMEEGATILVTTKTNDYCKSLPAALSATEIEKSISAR

T2: human BCMA-MFC (extracellular domain of human BCMA with C-terminal mFc tag) (human)
T2 construct: also called hBCMA.mFc
T2 chain: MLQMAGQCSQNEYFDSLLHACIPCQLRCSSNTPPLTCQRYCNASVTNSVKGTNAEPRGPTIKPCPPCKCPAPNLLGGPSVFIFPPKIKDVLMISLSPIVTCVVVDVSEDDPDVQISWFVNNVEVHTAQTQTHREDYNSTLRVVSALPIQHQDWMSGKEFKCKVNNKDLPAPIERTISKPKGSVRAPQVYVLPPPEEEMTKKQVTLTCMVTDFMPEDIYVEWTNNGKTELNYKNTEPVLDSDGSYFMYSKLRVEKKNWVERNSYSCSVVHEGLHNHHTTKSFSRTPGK

T3: mouse BCMA-MFC (BCMA with C-terminal mFc tag) (mouse)
T3 construct: Tested at a single concentration of 30 nM; also called mBCMA.mFc
T3 chain: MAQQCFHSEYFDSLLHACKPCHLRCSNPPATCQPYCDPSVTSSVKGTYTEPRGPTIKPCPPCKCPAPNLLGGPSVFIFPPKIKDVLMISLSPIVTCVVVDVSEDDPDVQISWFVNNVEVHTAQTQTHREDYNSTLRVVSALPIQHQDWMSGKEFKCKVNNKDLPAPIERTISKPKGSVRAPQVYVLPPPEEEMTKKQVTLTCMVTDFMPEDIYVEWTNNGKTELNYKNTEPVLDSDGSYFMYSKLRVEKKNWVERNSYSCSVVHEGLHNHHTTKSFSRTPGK

T4: human BCMA-MMH (extracellular domain of human BCMA with C-terminal myc-myc-hexahistidine tag) (human)
T4 construct: Monomeric antigen; also called hBCMA.mmh; hBCMA.mmH
T4 chain: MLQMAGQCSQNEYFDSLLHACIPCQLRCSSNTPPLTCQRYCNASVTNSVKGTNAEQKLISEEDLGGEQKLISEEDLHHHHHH

B1: mAb21581, parental bivalent anti-BCMA antibody (antibody, V domains shown)
VH: EVQLVESGGGLVQPGGSLRLSCAASGFTFSNFWMTWVRQAPGKGLEWVANMNQDGSEKYYVDSVKGRFTISRDNAKSSLYLQMNSLRAEDTAVYYCARDREYCISTSCYDDFDYWGQGTLVTVSS
VL: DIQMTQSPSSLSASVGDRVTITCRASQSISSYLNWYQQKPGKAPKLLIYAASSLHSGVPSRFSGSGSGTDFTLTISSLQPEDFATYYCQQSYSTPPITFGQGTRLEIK
B2: mAb16711 (antibody, V domains shown)
VH: QVQLVESGGGVVQPGRSLRLSCAASGFTFSTYGIHWVRQAPGKGLEWVAVILHDGSSNYYAESVKGRFIISRDNSKNTLYLQMNSLRAEDTALYYCTKRYSEAAGPNWFDPWGQGTLVTVSS
VL: DIQMTQSPSSVSASVGDRVTITCRASRGISSWLAWYQQKPGKAPKLLIHAASSLQSGVPSRFSGSGSGTDFTLTISSLQPEDFATYYCQQAISFPFTFGPGTKVDIK
notes: Anti-BCMA monoclonal antibody; Captured by anti-human Fc in SPR
B3: mAb16747 (REGN4515) (antibody, V domains shown)
VH: QVQLVESGGGLVKPGGSLRLSCAASGFTFSDYYISWIRQAPGKGLEWVSYISSSGSSIKYADSVKGRFTISRDNAKNSLYLQMNSLRAEDTAVYYCAREGGNYGMDVWGQGTTVTVSS
VL: DIQMTQSPSSVSASVGDRVTITCRASQGINNWLVWYQQKPGKAPKLLIYAATSLQSGVPSRFSGSGSGTDFTLTISSLQPEDFATYYCQQANSFPPTFGQGTKLEIK
notes: as for B2
B4: mAb16716 (antibody, V domains shown)
VH: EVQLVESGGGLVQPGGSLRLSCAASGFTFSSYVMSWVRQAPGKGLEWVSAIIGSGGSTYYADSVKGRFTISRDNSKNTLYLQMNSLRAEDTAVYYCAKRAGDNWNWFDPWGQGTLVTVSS
VL: B2 VL with V15L, R27Q, Q38R, H49Y, T69A, I92K, F94V
notes: as for B2
B5: mAb16732 (REGN4514) (antibody, V domains shown)
VH: EVQLVESGGGLVQPGRSLRLSCAASGFTFDDYAMHWVRQAPGKGLEWVSGISWNSGNMGYADSVKGRFTISRDNAKNSLFLQMHSLRAEDTAFYYCAKVRLTAFDFWGQGTLVTVSS
VL: DIQMTQSPSSLSASVGDRVTITCRTSQSIGNYLNWFQQKPGKAPKLLIYTASSLQNGVPSRFTGSGSGTDFTLTISSLQPEDFVIYYCQQSFSTPYTFGQGTKLEIK
notes: as for B2

Molecular target: T1, human BCMA on the surface of cell lines …
Experiment: cell-based or functional assay

Binder | MFI fold change over cells incubated in media only, MM1S, overnight with 67 nM antibody | MFI fold change over cells incubated in media only, MM1S, overnight with 667 nM antibody
B1 | 7.3 fold | 7 fold

Molecular target: T1, human BCMA on the surface of cell lines …
Experiment: cell-based or functional assay
Remark: another data set of the same source

Binder | MFI fold change over cells incubated in media only, NCI-H929, overnight with 67 nM antibody | MFI fold change over cells incubated in media only, NCI-H929, overnight with 667 nM antibody
B2 | 2.8 fold | 2.1 fold
B3 | 1.8 fold | 2.1 fold
B1 | 1.2 fold | 1.4 fold

Molecular target: T5, monkey BCMA-MMH (monkey BCMA with C-terminal myc-myc-hexahistidine tag) (monkey)
T5 construct: Monomeric antigen; also called mfBCMA.mmh
Experiment: SPR Biacore, 25 C, mAb captured via anti-hFc
Procedure: (§1) The CM5 Biacore sensor surface was derivatized by amine coupling with a monoclonal mouse anti-human Fc antibody (GE, #BR-1008-39) to capture purified anti-BCMA mAbs and anti-BCMA×anti-CD3 bispecific mAbs. All Biacore binding studies were performed in a buffer composed of 0.01M HEPES pH 7.4, 0.15M NaCl, 3 mM EDTA, 0.05% v/v Surfactant P20 (HBS-ET running buffer). […] Antigen samples were then injected over the anti-BCMA and anti-BCMA×anti-CD3 bispecific mAbs captured surfaces at a flow rate of 30 μL/minute. Antibody-reagent association was monitored for 5 minutes while dissociation in HBS-ET running buffer was monitored for 10 minutes. All of the binding kinetics experiments were performed at 25° C. Kinetic association (kₐ) and dissociation (kd) rate constants were determined by fitting the real-time sensorgrams to a 1:1 binding model using Scrubber 2.0c curve fitting software. Binding dissociation equilibrium constants (KD) and dissociative half-lives (t1/2) were calculated from the kinetic rate constants as: […]

Binder | 90 nM mfBCMA.mmh Bind (RU) | binding result
B2 | -0.5 RU | –
B4 | 0.8 RU | no binding (tested: 90 nM)

Molecular target: T2, human BCMA-MFC (extracellular domain of …)
Experiment: SPR Biacore, 25 C, mAb captured via anti-hFc
Procedure: as §1

Binder | 30 nM hBCMA.mFc Bind (RU) | Kd | koff | kon | t1/2
B2 | 114 RU | 0.103 nM | 0.00019 s⁻¹ | 1.85e+06 M⁻¹ s⁻¹ | 60.8 min
B4 | 120 RU | 0.0968 nM | 8.35e-05 s⁻¹ | 862000 M⁻¹ s⁻¹ | 138 min
B3 | 146 RU | 0.0633 nM | 8.95e-05 s⁻¹ | 1.41e+06 M⁻¹ s⁻¹ | 129 min
B5 | 124 RU | 0.0422 nM | 4.53e-05 s⁻¹ | 1.07e+06 M⁻¹ s⁻¹ | 255 min

Molecular target: T6, monkey BCMA-MFC (monkey BCMA with C-terminal mFc tag) (monkey)
T6 construct: also called mfBCMA.mFc
Experiment: SPR Biacore, 25 C, mAb captured via anti-hFc
Procedure: as §1

Binder | 30 nM mfBCMA.mFc Bind (RU) | binding result | Kd | koff | kon | t1/2
B2 | 0.9 RU | no binding (tested: 30 nM) | – | – | – | –
B3 | 101 RU | – | 3.37 nM | 0.00716 s⁻¹ | 2.13e+06 M⁻¹ s⁻¹ | 1.6 min
B5 | 40.3 RU | – | 14.7 nM | 0.00724 s⁻¹ | 492000 M⁻¹ s⁻¹ | 1.6 min

Molecular target: T3, mouse BCMA-MFC (BCMA with C-terminal …)
Experiment: SPR Biacore, 25 C, mAb captured via anti-hFc
Procedure: as §1

Binder | 30 nM mBCMA.mFc Bind (RU) | Kd | koff | kon | t1/2
B2 | 90 RU | 1.02 nM | 0.0011 s⁻¹ | 1.07e+06 M⁻¹ s⁻¹ | 10.5 min
B4 | 33.4 RU | 18.8 nM | 0.00385 s⁻¹ | 205000 M⁻¹ s⁻¹ | 3 min
B3 | 108 RU | 4.42 nM | 0.00418 s⁻¹ | 947000 M⁻¹ s⁻¹ | 2.8 min
B5 | 110 RU | 0.677 nM | 0.000269 s⁻¹ | 397000 M⁻¹ s⁻¹ | 43 min

Molecular target: T4, human BCMA-MMH (extracellular domain of …)
Experiment: SPR Biacore, 25 C, mAb captured via anti-hFc
Procedure: as §1

Binder | 90 nM hBCMA.mmh Bind (RU) | Kd | koff | kon | t1/2
B2 | 22.2 RU | 1.73 nM | 0.00347 s⁻¹ | 2.01e+06 M⁻¹ s⁻¹ | 3.3 min
B4 | 26.4 RU | 3.56 nM | 0.00299 s⁻¹ | 841000 M⁻¹ s⁻¹ | 3.9 min
B3 | 31.4 RU | 2.84 nM | 0.00247 s⁻¹ | 869000 M⁻¹ s⁻¹ | 4.7 min
B5 | 25.3 RU | 2.69 nM | 0.00285 s⁻¹ | 1.06e+06 M⁻¹ s⁻¹ | 4.1 min

Molecular target: T1, human BCMA on the surface of cell lines …
Experiment: cell-based or functional assay
Remark: another data set of the same source

Binder | MFI fold change over cells incubated in media only, Molp8, overnight with 67 nM antibody | MFI fold change over cells incubated in media only, Molp8, overnight with 667 nM antibody
B2 | 3.5 fold | 3 fold
B3 | 2.2 fold | 0.6 fold
B1 | 2.3 fold | 3.7 fold

Molecular target: T1, human BCMA on the surface of cell lines …
Experiment: cell-based or functional assay
Remark: another data set of the same source

Binder | MFI fold change over cells incubated in media only, U266, overnight with 67 nM antibody | MFI fold change over cells incubated in media only, U266, overnight with 667 nM antibody
B2 | 2.2 fold | 2.2 fold
B3 | 1.5 fold | 1.7 fold
B1 | 1.8 fold | 2.3 fold
